Measured values: the MegaScale stability set (Tsuboyama et al. 2023)

B1: EEHEE_rd4_0469 (parent)
chain: ITIHVNGVTYHFDNPEEAEKFAQKMAKTYQLKMEIHNGEFHME

Variants of: B1
Assay: folding stability dG (cDNA display proteolysis); higher = more stable
Details: PBS, room temperature

First: ITIHVNGVTYHFDPPEEAEKFAQKMAKTYQLKMEIHNGEFHME [N14P]
Second: ITIHVNGVTYHFDRPEEAEKFAQKMAKTYQLKMEIHNGEFHME [N14R]
The “folding stability dG” value of the first is lower: 0.129 kcal/mol for the first, 1.09 kcal/mol for the second.

Compared with ITIHVNGVTYHFDIPEEAEKFAQKMAKTYQLKMEIHNGEFHME [N14I], ITIHVNGVTYHFDEPEEAEKFAQKMAKTYQLKMEIHNGEFHME [N14E] is lower in “folding stability dG” value: 1.22 kcal/mol for the first, 0.901 kcal/mol for the second.

Compared with ITIHVNGVTYHFDFPEEAEKFAQKMAKTYQLKMEIHNGEFHME [N14F], ITIHVNGVTYHFDAPEEAEKFAQKMAKTYQLKMEIHNGEFHME [N14A] is lower in “folding stability dG” value: 1.05 kcal/mol for the first, 0.947 kcal/mol for the second.

First: ITIHVNGVTYHFDTPEEAEKFAQKMAKTYQLKMEIHNGEFHME [N14T]
Second: ITIHVNGVTYHFDSPEEAEKFAQKMAKTYQLKMEIHNGEFHME [N14S]
The “folding stability dG” value of the first is higher: 1.09 kcal/mol for the first, 1.07 kcal/mol for the second.

Going from ITIHVNGVTYHFDLPEEAEKFAQKMAKTYQLKMEIHNGEFHME [N14L] to ITIHVNGVTYHFDKPEEAEKFAQKMAKTYQLKMEIHNGEFHME [N14K], the “folding stability dG” value falls from 1.18 kcal/mol to 1.1 kcal/mol.

Compared with ITIHVNGVTYHFDDPEEAEKFAQKMAKTYQLKMEIHNGEFHME [N14D], ITIHVNGVTYHFDYPEEAEKFAQKMAKTYQLKMEIHNGEFHME [N14Y] is lower in “folding stability dG” value: 1.19 kcal/mol for the first, 0.849 kcal/mol for the second.

Compared with ITIHVNGVTYHFDWPEEAEKFAQKMAKTYQLKMEIHNGEFHME [N14W], ITIHVNGVTYHFDVPEEAEKFAQKMAKTYQLKMEIHNGEFHME [N14V] is higher in “folding stability dG” value: 1.05 kcal/mol for the first, 1.1 kcal/mol for the second.

First: ITIHVNGVTYHFDGPEEAEKFAQKMAKTYQLKMEIHNGEFHME [N14G]
Second: ITIHVNGVTYHFDMPEEAEKFAQKMAKTYQLKMEIHNGEFHME [N14M]
The “folding stability dG” value of the first is lower: 0.9 kcal/mol for the first, 0.98 kcal/mol for the second.

First: ITIHVNGVTYHFDQPEEAEKFAQKMAKTYQLKMEIHNGEFHME [N14Q]
Second: ITIHVNGVTYHFDHPEEAEKFAQKMAKTYQLKMEIHNGEFHME [N14H]
The “folding stability dG” value of the first is higher: 1 kcal/mol for the first, 0.946 kcal/mol for the second.

Compared with ITIHVNGQTYHFDNPEEAEKFAQKMAKTYQLKMEIHNGEFHME [V8Q], ITIHVNGRTYHFDNPEEAEKFAQKMAKTYQLKMEIHNGEFHME [V8R] is higher in “folding stability dG” value: 1.06 kcal/mol for the first, 1.43 kcal/mol for the second.

Going from ITIHVNGWTYHFDNPEEAEKFAQKMAKTYQLKMEIHNGEFHME [V8W] to ITIHVNGTTYHFDNPEEAEKFAQKMAKTYQLKMEIHNGEFHME [V8T], the “folding stability dG” value falls from 1.47 kcal/mol to 1.12 kcal/mol.

Going from ITIHVNGSTYHFDNPEEAEKFAQKMAKTYQLKMEIHNGEFHME [V8S] to ITIHVNGYTYHFDNPEEAEKFAQKMAKTYQLKMEIHNGEFHME [V8Y], the “folding stability dG” value rises from 1.09 kcal/mol to 1.29 kcal/mol.

Going from ITIHVNGVTYHFRNPEEAEKFAQKMAKTYQLKMEIHNGEFHME [D13R] to ITIHVNGVTYHFLNPEEAEKFAQKMAKTYQLKMEIHNGEFHME [D13L], the “folding stability dG” value rises from 1.15 kcal/mol to 1.28 kcal/mol.

Compared with ITIHVNGVTYHFQNPEEAEKFAQKMAKTYQLKMEIHNGEFHME [D13Q], ITIHVNGVTYHFINPEEAEKFAQKMAKTYQLKMEIHNGEFHME [D13I] is higher in “folding stability dG” value: 1.11 kcal/mol for the first, 1.3 kcal/mol for the second.

Going from ITIHVNGVTYHFKNPEEAEKFAQKMAKTYQLKMEIHNGEFHME [D13K] to ITIHVNGVTYHFNNPEEAEKFAQKMAKTYQLKMEIHNGEFHME [D13N], the “folding stability dG” value rises from 1.1 kcal/mol to 1.13 kcal/mol.

First: ITIHVNGVTYHFCNPEEAEKFAQKMAKTYQLKMEIHNGEFHME [D13C]
Second: ITIHVNGVTYHFENPEEAEKFAQKMAKTYQLKMEIHNGEFHME [D13E]
The “folding stability dG” value of the first is higher: 1.81 kcal/mol for the first, 1.11 kcal/mol for the second.

Going from ITIHVNGVTYHFYNPEEAEKFAQKMAKTYQLKMEIHNGEFHME [D13Y] to ITIHVNGVTYHFPNPEEAEKFAQKMAKTYQLKMEIHNGEFHME [D13P], the “folding stability dG” value falls from 1.23 kcal/mol to 1.17 kcal/mol.

Compared with ITIHVNGVTYHFVNPEEAEKFAQKMAKTYQLKMEIHNGEFHME [D13V], ITIHVNGVTYHFMNPEEAEKFAQKMAKTYQLKMEIHNGEFHME [D13M] is lower in “folding stability dG” value: 1.21 kcal/mol for the first, 1.16 kcal/mol for the second.

First: ITIHVNGVTYHFGNPEEAEKFAQKMAKTYQLKMEIHNGEFHME [D13G]
Second: ITIHVNGVTYHFHNPEEAEKFAQKMAKTYQLKMEIHNGEFHME [D13H]
The “folding stability dG” value of the first is lower: 1.11 kcal/mol for the first, 1.2 kcal/mol for the second.

Going from ITIHVNGVTYHFSNPEEAEKFAQKMAKTYQLKMEIHNGEFHME [D13S] to ITIHVNGVTYHFTNPEEAEKFAQKMAKTYQLKMEIHNGEFHME [D13T], the “folding stability dG” value falls from 1.26 kcal/mol to 1.25 kcal/mol.

Compared with ITIHVNGVTYHFANPEEAEKFAQKMAKTYQLKMEIHNGEFHME [D13A], ITIHVNGVTYHFWNPEEAEKFAQKMAKTYQLKMEIHNGEFHME [D13W] is higher in “folding stability dG” value: 1.2 kcal/mol for the first, 1.23 kcal/mol for the second.

First: ITIHVNGVTYHFFNPEEAEKFAQKMAKTYQLKMEIHNGEFHME [D13F]
Second: ITIHVNGVTYHFDNEEEAEKFAQKMAKTYQLKMEIHNGEFHME [P15E]
The “folding stability dG” value of the first is higher: 1.15 kcal/mol for the first, 0.979 kcal/mol for the second.

Compared with ITIHVNGVTYHFDNGEEAEKFAQKMAKTYQLKMEIHNGEFHME [P15G], ITIHVNGVTYHFDNDEEAEKFAQKMAKTYQLKMEIHNGEFHME [P15D] is lower in “folding stability dG” value: 1.04 kcal/mol for the first, 0.883 kcal/mol for the second.

Going from ITIHVNGVTYHFDNFEEAEKFAQKMAKTYQLKMEIHNGEFHME [P15F] to ITIHVNGVTYHFDNHEEAEKFAQKMAKTYQLKMEIHNGEFHME [P15H], the “folding stability dG” value falls from 1.39 kcal/mol to 1.13 kcal/mol.

Compared with ITIHVNGVTYHFDNAEEAEKFAQKMAKTYQLKMEIHNGEFHME [P15A], ITIHVNGVTYHVDNPEEAEKFAQKMAKTYQLKMEIHNGEFHME [F12V] is lower in “folding stability dG” value: 1.14 kcal/mol for the first, 0.034 kcal/mol for the second.

Going from ITIHVNGVTYHADNPEEAEKFAQKMAKTYQLKMEIHNGEFHME [F12A] to ITIHVNGVTYHYDNPEEAEKFAQKMAKTYQLKMEIHNGEFHME [F12Y], the “folding stability dG” value rises from -0.214 kcal/mol to 0.526 kcal/mol.

Going from ITIHVNGVTYHQDNPEEAEKFAQKMAKTYQLKMEIHNGEFHME [F12Q] to ITIHVNGVTYHCDNPEEAEKFAQKMAKTYQLKMEIHNGEFHME [F12C], the “folding stability dG” value rises from -0.822 kcal/mol to 1.07 kcal/mol.

Compared with ITIHVNGVTYHPDNPEEAEKFAQKMAKTYQLKMEIHNGEFHME [F12P], ITIHVNGVTYHMDNPEEAEKFAQKMAKTYQLKMEIHNGEFHME [F12M] is higher in “folding stability dG” value: -0.616 kcal/mol for the first, 0.391 kcal/mol for the second.

First: ITIHVNGVTYHTDNPEEAEKFAQKMAKTYQLKMEIHNGEFHME [F12T]
Second: ITIHVNGVTYHKDNPEEAEKFAQKMAKTYQLKMEIHNGEFHME [F12K]
The “folding stability dG” value of the first is higher: -0.211 kcal/mol for the first, -0.93 kcal/mol for the second.

In the case of ITIHVNGVTYHLDNPEEAEKFAQKMAKTYQLKMEIHNGEFHME [F12L], the “folding stability dG” value is reported as 0.299 kcal/mol.
